From the supplement of paper PMC12042874 come the findings set out here.

± gives the uncertainty stated by the source.

The nature of this data set: amyloid nucleation score (Sup35N fusion, yeast selection) (log enrichment); library NNK3; higher = more nucleation; inactive = no reads after selection. An outline of the steps: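 Growth for 7 days at 30°C on medium lacking adenine and uracil followed a 24-hour induction with 100 μM copper sulfate of psi-negative yeast expressing peptides of 20 random codons fused to Sup35N. Input and output plasmid inserts were sequenced with Illumina, and sequences with under 100 input reads were excluded. Nucleation score is the DiMSum log enrichment of output over input reads, centred on the mode score of non-aggregating sequences.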
As to SMSSELCLGNRHYG, the amyloid nucleation score result is “inactive”. As to DIYSDWLFIVLRHLVIRVLS, the amyloid nucleation score amounted to 0.754 ± 0.12. Turning to RLRLGAAGRQGSEVVYNWSM, the amyloid nucleation score turned out to be 1.23 ± 0.12. The value for CYEGR was “inactive”.

As for IRTARNTEETMVVACMTVGV, the amyloid nucleation score result is “inactive”. Take FTRYRNVFKWTMWFSYFWQA: the amyloid nucleation score entry was “inactive”. The value for GDTDFYRSCNASYIPSLSRL was “inactive”; that for FCHVRMLAISTIYGSSVEVF was “inactive”. The value for LMKWALNTELKMG was “inactive”. In the case of TLIFRLYLRRNCNAVFCFVV, the amyloid nucleation score was 0.084 ± 0.56. Consider IHGPGCRSCERSSVGLRSGL, for which the amyloid nucleation score result was “inactive”.

Turning to RYDMRVNVVFTCPWRDSNND, the amyloid nucleation score was found to be 0.894 ± 0.28.

On to RRIPITFIACNCTRTCWQMI, for which the amyloid nucleation score was 0.394 ± 0.23.

Take VGDVFSKRCHMRLFMNSLER: the amyloid nucleation score entry was “inactive”. For the substance HGVNT, the amyloid nucleation score entry was “inactive”.

With CQSKLKLSMLCRWFRCTIGK, the amyloid nucleation score entry was “inactive”.

With HSVFFY, the amyloid nucleation score result is “inactive”. For the substance WSWGTG, the amyloid nucleation score entry is “inactive”. For KADECS, the amyloid nucleation score result is “inactive”. Take CGPFGFMCDAVGSAQFDIMM: the amyloid nucleation score result is “inactive”. The value for CSRYFRWYHVLAYCSVPNRM was “inactive”; that for PRLAIKAHGVWVGKSFIGET was “inactive”. The value for IGSNRRSFEVCTYIASKIPL was “inactive”. Consider DECVYLFKNSYSVIILMFFK, for which the amyloid nucleation score entry was “inactive”. Then ISLLYVFMLNR, with 2.11 ± 0.078; and IWYRDSFLPSGRYWFLRINW, with “inactive”. Regarding NIVSFVGDVFHSLLVG, the amyloid nucleation score entry is “inactive”.

As to RRTDGATEACISTSGPEYIV, the amyloid nucleation score result is “inactive”.

As to LFRLFVSEARTRLNCRTCNF, the amyloid nucleation score was -0.285 ± 0.64. On to LELDCASNRLSPNGIYMYFW, for which the amyloid nucleation score is 0.123 ± 0.35. Then EICWKLIGRMRC, with “inactive”; and THDVFSSVMLGSFSLSSTTN, with “inactive”. Then YVSSAILRNRVLCHCYFTML, with “inactive”; and AACYINMCIGIVYGYSFLSF, with 1.13 ± 0.087; and GYRDLRGWNVNRKDSLVS, with “inactive”.

Regarding RSYTDMCP, the amyloid nucleation score entry is “inactive”. The value for PTGFLLPDAGWKIYTGSLDV was “inactive”; that for SEQFSPCLVGQLRMDYSWI was “inactive”; that for MLLVLR was 0.972 ± 0.1. EFGWQL: the amyloid nucleation score entry is “inactive”. Then SVIAMYQFVYYYVSKMVNID, with “inactive”. Then THRFGMVR, with “inactive”. Turning to LGASRGMFVKNLLIMASHSR, the amyloid nucleation score result is “inactive”.

As to RFDIK, the amyloid nucleation score result is “inactive”. Consider VCWSYNSNL, for which the amyloid nucleation score entry was “inactive”.

Take RNVGKGNAVQSGPAWIERS: the amyloid nucleation score entry was “inactive”. Consider YDAIVAPFSFSTLAVVITYG, for which the amyloid nucleation score entry was “inactive”. Take VVSLRQLRW: the amyloid nucleation score result is “inactive”. The value for VVLDYVSYAVIHGWEM was “inactive”; that for FVCSARYNSFRFKATVHNSR was “inactive”. The value for VGMGLAKDVR was “inactive”; that for FNSYGKLWYFESKDRVYACD was -0.462 ± 1.4; that for VTLDEFRIISHCSYSFCYEG was “inactive”. The value for TEMMTFGFSGVMFVRVMFWL was “inactive”; that for IQGYLANDVPMRNWPG was “inactive”.

Take GTEVILSLVSESTGKRAARL: the amyloid nucleation score result is “inactive”. The value for RIDTRNDRSNYR was “inactive”. Then MIDRRMSFRQGDHKDCPTAH, with “inactive”; and GYLIIVIRLSAIDRHQ, with “inactive”; and KNCIGRFW, with “inactive”. RYGFDRIPIFLLNVAMNVYP: the amyloid nucleation score amounted to 0.535 ± 0.58. The value for SGSDILISYLLFCYNACLTF was “inactive”.

On to NSGLSIVWDWLDCFSGMKYS, for which the amyloid nucleation score entry was “inactive”.

Take QGLPVSVSFVGEIYLLLF: the amyloid nucleation score was determined as 2.32 ± 0.053. As for WFLVNRDWFLGCQVTGEVLI, the amyloid nucleation score result was “inactive”. Regarding VNEPDSVFMT, the amyloid nucleation score result was “inactive”. RSGKVSFFIGYNVVGLMRFR: the amyloid nucleation score entry was “inactive”. Regarding YLKWTNVVKMGHSKSSTE, the amyloid nucleation score was determined as 1.29 ± 0.1. As for YGRLPSWIKWFFLVVYIRVL, the amyloid nucleation score entry was “inactive”.

Consider YLDFVFGLRTRDNYLWVRPT, for which the amyloid nucleation score result is “inactive”. The substance STSYGLRIVSKNDDYLRTAR registered an amyloid nucleation score of 0.511 ± 0.19. The value for YTALHWLYFVSCKFDEKVQW was “inactive”; that for FDFTGYLKCLKCTSSCTMVL was “inactive”; that for KGLSLGCIFKGLEFREQGVE was “inactive”. For AKSKSIRERLVVFEASQTRY, the amyloid nucleation score entry is “inactive”. Take LRTTDSGSGIYLTNSVHGFV: the amyloid nucleation score result was “inactive”.

Take TLSSKDVYMFLDS: the amyloid nucleation score result was “inactive”. Turning to CSGYVNGLVIQGKCAKDVVW, the amyloid nucleation score entry is “inactive”. The value for VNTSINVYRYPFRCRSYRMH was 0.833 ± 0.085. CQDHVKNITAIPHSSGMYMS: the amyloid nucleation score result is “inactive”. The value for VTGLCSDTHRVSYEFRLPRK was “inactive”. As for QYLEAWRCTHFTVGALLLMG, the amyloid nucleation score entry is “inactive”. Then ENALRLRQVGQILGLNCRIV, with “inactive”; and GKVATHSIHDYFELSMTKGC, with “inactive”.

With RLTGEMRRCVVHGKRSHRVF, the amyloid nucleation score entry was “inactive”. Then YGDWIHATCVICSLSF, with 3.39 ± 0.05. With VIAVSYNFTWFKTSIFN, the amyloid nucleation score came out at 1.31 ± 0.11. The value for RSSLLSRVLSEITHSWQLCA was “inactive”.

In turn, FLMKLWM had an amyloid nucleation score of 1.66 ± 0.08. Then TVLVGDMVVR, with “inactive”; and GDGAYS, with “inactive”; and GFLDDYIIMDQLLHEFVKRF, with “inactive”. Turning to WNMSVRRISYEDL, the amyloid nucleation score entry was “inactive”.

With YWPIHSSTAETDVTVRTRSY, the amyloid nucleation score worked out at 1.01 ± 0.14. Take REREF: the amyloid nucleation score result is “inactive”. Then ICSYTSVYSRKW, with 0.404 ± 0.35; and GMALPRVIVFIGNRITTNLG, with 2.31 ± 0.065. Then NLQERAL, with -0.438 ± 0.88; and IPRVDLLLCLDSIGLGRSLN, with “inactive”; and SNDVCVC, with “inactive”. For the substance DIVSLVNAFMISTIYTVTRK, the amyloid nucleation score result was “inactive”. For ELRQFSP, the amyloid nucleation score entry was “inactive”. Turning to SEHFRN, the amyloid nucleation score result is “inactive”. The value for SDIYWNGGLMYWICSMSVFI was 2.84 ± 0.078; that for RIVIPMVWEYIFSDFVFG was 1.72 ± 0.088. Then SSFAGVFNFRDGTQSQILYV, with “inactive”. Then GVHIMRGGGIYVVGGLESWA, with “inactive”; and CSMFVAIIPRWSFEWPLRW, with “inactive”. Regarding DTSKNYAIYFGKLGDWSARS, the amyloid nucleation score was -0.01 ± 0.96.

For DISSKY, the amyloid nucleation score result is “inactive”. As for SHWYIYSYSVDPCAGHAAVW, the amyloid nucleation score result was “inactive”. The value for VGETWNSVACVLTQLWLTCE was -0.014 ± 0.26.

On to SALKGLTRELSVRVY, for which the amyloid nucleation score result is “inactive”. Consider SFYGSIQGQNLLTLLNMKTR, for which the amyloid nucleation score entry is “inactive”.

TVTVQYTG: the amyloid nucleation score result was “inactive”. On to FLMRCISLGGTGANFLLELS, for which the amyloid nucleation score entry was “inactive”. Then GPFQLA, with “inactive”; and HWSRFQYGLVFRNFIVQNLD, with “inactive”; and WYTIRDYRAFLSVM, with “inactive”. The value for EPRRLRITCEYTVNRRLSDE was “inactive”; that for TVYYTLFATIWMLGVFFLNN was “inactive”. Turning to YAGFCPRGRSPKRG, the amyloid nucleation score result is “inactive”. Regarding MWSVPLKSQAILYTFDCVSL, the amyloid nucleation score was 0.174 ± 0.44. Then FFNKREKDVFSNHRQYGYWN, with “inactive”; and HLCDFPLEVKTLFFLL, with 0.508 ± 0.17; and RWNLDWSSLSAGHGKYSQEY, with “inactive”. The value for AMTRCGECGHRMGKASAGMW was “inactive”; that for KGLASSYRTTYAVDL was “inactive”; that for CQSVLCAKFLVSERH was “inactive”.

On to ARIFH, for which the amyloid nucleation score entry is “inactive”. The value for PGRTSYMKVPYCKWSEWPAK was “inactive”; that for ISLSR was “inactive”.
